This note sets out measurements from patent EP1165135B1 (City of Hope, dated 2004).

Assay [1] concerns the target T1, rat FXR (farnesoid X-activated receptor), full-length (rat, UniProt Q62735 1-469).
T1 construct: mature; Full-length protein cloned into pCMX and translated in vitro for the mobility shift assays; also called bile acid nuclear receptor
T1 sequence (looked up): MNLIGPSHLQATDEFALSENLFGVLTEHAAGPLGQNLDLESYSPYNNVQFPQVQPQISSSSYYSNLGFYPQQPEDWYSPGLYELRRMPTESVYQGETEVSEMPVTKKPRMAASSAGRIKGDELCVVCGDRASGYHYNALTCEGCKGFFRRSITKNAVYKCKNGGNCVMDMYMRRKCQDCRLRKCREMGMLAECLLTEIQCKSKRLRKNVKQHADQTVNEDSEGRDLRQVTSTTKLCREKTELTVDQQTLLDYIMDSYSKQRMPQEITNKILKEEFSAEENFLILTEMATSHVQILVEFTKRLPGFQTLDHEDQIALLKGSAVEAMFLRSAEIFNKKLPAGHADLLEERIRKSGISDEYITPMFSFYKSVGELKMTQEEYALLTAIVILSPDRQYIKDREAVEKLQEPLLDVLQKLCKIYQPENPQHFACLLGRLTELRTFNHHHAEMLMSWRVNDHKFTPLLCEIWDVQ
In words: electrophoretic mobility shift, in vitro translated FXR + RXR on EcRE probe.

Assay [2] addresses T2, GST-GRIP1, the three receptor interaction domains of mouse GRIP1 (Arg 625 - Lys 765) fused to … (mouse, UniProt Q61026 625-765).
T2 construct: Expressed in E. coli and purified on glutathione-sepharose; also called CoA; not shown: glutathione-S-transferase (GST)
T2 sequence (looked up): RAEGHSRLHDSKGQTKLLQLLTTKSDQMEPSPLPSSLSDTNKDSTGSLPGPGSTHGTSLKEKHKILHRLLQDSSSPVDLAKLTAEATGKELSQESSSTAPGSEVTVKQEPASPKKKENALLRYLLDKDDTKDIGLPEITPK
In words: phosphorimager quantitation of the mobility shift autoradiogram against LG268 concentration (Figure 4).

Assay [3] deals with T2, GST-GRIP1, the three receptor …. Description: electrophoretic mobility shift, DR1 probe, LG268 0-1000 nM.
For assay [4], the target named is T1, rat FXR (farnesoid X-activated …). In words: DNA binding as a heterodimer (Figure 5 and data not shown).

B1: human RXRα (9-cis retinoic acid receptor), full-length, wild type (receptor, UniProt P19793 1-462, looked up)
chain: MDTKHFLPLDFSTQVNSSLTSPTGRGSMAAPSLHPSLGPGIGSPGQLHSPISTLSSPINGMGPPFSVISSPMGPHSMSVPTTPTLGFSTGSPQLSSPMNPVSSSEDIKPPLGLNGVLKVPAHPSGNMASFTKHICAICGDRSSGKHYGVYSCEGCKGFFKRTVRKDLTYTCRDNKDCLIDKRQRNRCQYCRYQKCLAMGMKREAVQEERQRGKDRNENEVESTSSANEDMPVERILEAELAVEPKTETYVEANMGLNPSSPNDPVTNICQAADKQLFTLVEWAKRIPHFSELPLDDQVILLRAGWNELLIASFSHRSIAVKDGILLATGLHVHRNSAHSAGVGAIFDRVLTELVSKMRDMQMDKTELGCLRAIVLFNPDSKGLSNPAEVEALREKVYASLEAYCKHKYPEQPGRFAKLLLRLPALRSIGLKCLEHLFFFKLIGDTPIDTFLMEMLEAPHQMT
notes: mature; also called wild-type RXR
B1: in assay [1], the binding result is given as “binds”.

B2: RXRm, human RXRα with the point mutation Asp 322→Pro in the ligand binding domain (receptor, UniProt P19793 1-462, looked up)
chain: MDTKHFLPLDFSTQVNSSLTSPTGRGSMAAPSLHPSLGPGIGSPGQLHSPISTLSSPINGMGPPFSVISSPMGPHSMSVPTTPTLGFSTGSPQLSSPMNPVSSSEDIKPPLGLNGVLKVPAHPSGNMASFTKHICAICGDRSSGKHYGVYSCEGCKGFFKRTVRKDLTYTCRDNKDCLIDKRQRNRCQYCRYQKCLAMGMKREAVQEERQRGKDRNENEVESTSSANEDMPVERILEAELAVEPKTETYVEANMGLNPSSPNDPVTNICQAADKQLFTLVEWAKRIPHFSELPLDDQVILLRAGWNELLIASFSHRSIAVKPGILLATGLHVHRNSAHSAGVGAIFDRVLTELVSKMRDMQMDKTELGCLRAIVLFNPDSKGLSNPAEVEALREKVYASLEAYCKHKYPEQPGRFAKLLLRLPALRSIGLKCLEHLFFFKLIGDTPIDTFLMEMLEAPHQMT
notes: mature; Claim 9 prints Asp332→Pro; also called mutant RXR; RXR mutant
In the case of B2, the “fold higher ligand concentration required for recruitment of coactivator (against wild-type RXR)” value in assay [2] was about 100 fold. In addition, the “fold decrease in potency of coactivator recruitment compared to wild type RXR” value in assay [3] worked out at 100 fold. Besides, the binding result in assay [4] is listed as “binds”.
